Measurements taken from article PMC10341776.

Target: chloroplast FOF1-ATP synthase from spinach chloroplasts (spinach (Spinacia oleracea)) (UniProt P06450)
Assay: SAXS; AEX-purified cFOF1 dialysed overnight against 30 mM HEPES, 2 mM MgCl2, 0.04% (w/v) tPCC-α-M, 450 mM NaCl; room temperature; fit with a mixture of monomers and docked dimers (OLIGOMER); monomer to dimer

- fraction of dimeric cFOF1 (model with F1/F1 dimers): 68%
- stoichiometry N: 2
Substance: chloroplast FOF1-ATP synthase from spinach chloroplasts, P06450 1-507; P00825 1-498; P05435 42-364; P00833 1-134; P11402 71-257; P06451 1-247; P06453 1-184; P31853 76-222; P69447 1-81
